According to PMC4529466, “Intradermal insulin infusion achieves faster insulin action than subcutaneous infusion for 3-day wear” (Drug Delivery and Translational Research, 2015):

Assay: Postprandial serum insulin aspart pharmacokinetics after meal bolus, 3-day ID vs SC infusion
Type: in vivo, human (T1DM patients)
Conditions: for ΔAUCIns0−1: 0–1 h; for ΔAUCIns0−1 / ΔAUCIns0–1.5 / ΔAUCIns0–2 / ΔAUCIns0–4 / T50_max_falling / T50_max_rising / Tmax / ΔCmax: mean ± SD; for ΔAUCIns0–1.5: 0–1.5 h; for ΔAUCIns0–2: 0–2 h; for ΔAUCIns0–4: 0–4 h; for Intra-subject variability of Tmax: across all study days and breakfast and lunch meals
From the text: This was a single center, open-label, two-period crossover study, randomized by infusion order, in T1DM patients on continuous subcutaneous insulin infusion (CSII). The protocol was approved by an independent ethics committee (Ethikkommission der Ärztekammer Nordrhein, Düsseldorf, Germany), appropriate regulatory bodies (German Federal Institute for Drugs and Medical Devices (BfArM)), and conducted in compliance with good clinical practice (GCP), the Declaration of Helsinki, and applicable regulatory requirements.
The study was completed over a multi-week period consisting of three study visits: a screening visit (V1) and two interventional visits (V2 and V3). After establishing eligibility and enrollment, patients received treatment during two interventional visits: one SC and one ID basal/bolus infusion of insulin aspart (NovoRapid® U-100, Novo Nordisk, Copenhagen, Denmark) administered over 3 days in a randomized order.
For each dosing visit, patients arrived the evening prior to the first standardized meal to verify compliance with protocol criteria. An intravenous catheter was inserted into a peripheral vein of the arm for manual blood sampling. Infusion sets, ID (34 G × 1.5 mm length stainless steel microneedle catheter set, BD Technologies, Research Triangle Park, NC) or SC (25 G × 6 mm length soft cannula, Quick-Set, Medtronic Minimed, Northridge, CA), were connected to an insulin infusion pump (Animas® Vibe™, Animas Corporation, West Chester, PA) and primed according to the manufacturer’s instructions. Sets were placed into the patient’s abdomen (periumbilical, left or right) using a customized applicator for the ID set, or the manufacturer recommended inserter for the SC set (customized Sof-serter® and Quick-serter® respectively, both Medtronic Minimed, Northridge, CA). Due to the small adhesive surface on the microneedle catheter, a modified IV dressing (IV3000 1-Hand, Smith & Nephew, England) was used for additional securement over the catheter. A safety loop was used on all catheter lines as recommended by general insulin pump user guidance (Fig. 1c). The respective infusion sets provided all basal and bolus insulin delivery of insulin aspart for the duration of each 72-h study period. A fluid pressure transducer (BD-DTX™ Plus, Becton Dickinson, Franklin Lakes, NJ) was connected in-line between the pump reservoir and each infusion set to monitor infusion delivery pressure, with automated data capture via a commercial data logging system (LORD MicroStrain®, Williston, VT) to provide a secondary post hoc measure of delivery status. The pump/pressure monitoring system combination was contained in a waist pack for the duration of delivery due to its potentially cumbersome size.
After maintaining targeted blood glucose range during the preceding night, bolus insulin doses were administered via the respective infusion catheter prior to standardized breakfast and lunch test meals on each of the three treatment days. Each meal insulin bolus was calculated based on the patient’s insulin sensitivity and previous hours change in BG per sliding scale then delivered immediately prior to breakfast (t = 0 min) and lunch (t = 360 min) consumption. Breakfast was a high glycemic index (60 g carbohydrates) solid meal, and lunch was a mixed meal based on the individual’s calculated daily energy intake and equivalent in caloric composition by day. Breakfast and lunch meals were consumed within 15 min followed by serial blood sampling with BG monitoring for a period of 6 and 4 h, respectively. Patients were asked to remain sedentary for 2 h after meals. Identical study procedures were utilized for the remaining dosing visit days (Fig. 2).
To assess insulin absorption kinetics and glycemic response, blood samples for measurements of insulin aspart and blood glucose in serum were drawn at predefined time points throughout dosing visits. Serial samples for safety BG determination, but not PK analysis, were obtained at a minimum every 2 h. […]

[1] = ID infusion, Day 1, across meals
[2] = ID infusion, Day 2, across meals
[3] = ID infusion, Day 3, across meals
[4] = ID infusion, Days 1–3 combined, across meals, n = 141–156
[5] = SC infusion, Day 1, across meals
[6] = SC infusion, Day 2, across meals
[7] = SC infusion, Day 3, across meals
[8] = SC infusion, Days 1–3 combined, across meals, n = 141–156

insulin aspart
reduction of Tmax compared to the respective SC delivery (ID bolus vs SC): greater than 40% | decrease of T50_max_falling, ID vs SC (ID bolus vs SC, p < 0.0001): ~25% | decrease of T50_max_rising, ID vs SC (ID bolus vs SC, p < 0.0001): ~ 50% | ΔAUCIns0−1 [1]: 39.5 ± 31.4 mU*h/L | ΔAUCIns0−1 [2]: 43.7 ± 36 mU*h/L | ΔAUCIns0−1 [3]: 44.8 ± 37.4 mU*h/L | ΔAUCIns0−1 [4]: 42.5 ± 34.7 mU*h/L | ΔAUCIns0–1.5 [1]: 56.6 ± 46.4 mU*h/L | ΔAUCIns0–1.5 [2]: 61.6 ± 54.0 mU*h/L | ΔAUCIns0–1.5 [3]: 62.8 ± 55.6 mU*h/L | ΔAUCIns0–1.5 [4]: 60.2 ± 51.6 mU*h/L | ΔAUCIns0–2 [1]: 68.5 ± 59.0 mU*h/L | ΔAUCIns0–2 [2]: 74.0 ± 67.8 mU*h/L | ΔAUCIns0–2 [3]: 75.7 ± 71.2 mU*h/L | ΔAUCIns0–2 [4]: 72.5 ± 65.5 mU*h/L | ΔAUCIns0–4 [1]: 86.9 ± 85.8 mU*h/L | ΔAUCIns0–4 [2]: 92.3 ± 94.5 mU*h/L | ΔAUCIns0–4 [3]: 94.4 ± 103 mU*h/L | ΔAUCIns0–4 [4]: 91.0 ± 93.5 mU*h/L | T50_max_falling [1]: 108 ± 39.2 min | T50_max_rising [1]: 5.7 ± 2.2 min | Tmax [1]: 27.6 ± 13.9 min | ΔCmax [1]: 54.5 ± 42.1 mU/L | T50_max_falling [2]: 106 ± 32.6 min | T50_max_rising [2]: 5.8 ± 2.6 min | Tmax [2]: 29.1 ± 13.3 min | ΔCmax [2]: 58.6 ± 47.0 mU/L | T50_max_falling [3]: 107 ± 36.7 min | T50_max_rising [3]: 6.4 ± 2.3 min | Tmax [3]: 29.1 ± 12.5 min | ΔCmax [3]: 61.2 ± 51.5 mU/L | ΔCmax (ID infusion, Days 1–3 combined, across meals, baseline corrected, n = 141–156): 57.9 ± 46.5 mU/L | T50_max_falling [4]: 107 ± 36.1 min | T50_max_rising [4]: 6.0 ± 2.4 min | Tmax [4]: 28.5 ± 13.2 min | Intra-subject variability of Tmax (ID): 29.6 %CV | intra-subject Tmax variability measured by %CV (ID, across meals and days): 30% | ΔAUCIns0−1 [5]: 29.9 ± 25.3 mU*h/L | ΔAUCIns0−1 [6]: 30.6 ± 21.1 mU*h/L | ΔAUCIns0−1 [7]: 33.6 ± 25.7 mU*h/L | ΔAUCIns0−1 [8]: 31.3 ± 24 mU*h/L | ΔAUCIns0–1.5 [5]: 45.9 ± 38.9 mU*h/L | ΔAUCIns0–1.5 [6]: 48.7 ± 35.9 mU*h/L | ΔAUCIns0–1.5 [7]: 52.8 ± 42.5 mU*h/L | ΔAUCIns0–1.5 [8]: 49.0 ± 39.0 mU*h/L | ΔAUCIns0–2 [5]: 57.8 ± 50.9 mU*h/L | ΔAUCIns0–2 [6]: 62.6 ± 49.6 mU*h/L | ΔAUCIns0–2 [7]: 66.7 ± 57.0 mU*h/L | ΔAUCIns0–2 [8]: 62.2 ± 52.3 mU*h/L | ΔAUCIns0–4 [5]: 77.4 ± 76.2 mU*h/L | ΔAUCIns0–4 [6]: 85.7 ± 82.3 mU*h/L | ΔAUCIns0–4 [7]: 87.7 ± 86.9 mU*h/L | ΔAUCIns0–4 [8]: 83.4 ± 81.3 mU*h/L | T50_max_falling [5]: 135 ± 51.1 min | T50_max_rising [5]: 13.2 ± 7.9 min | Tmax [5]: 46.0 ± 28.4 min | ΔCmax [5]: 47.4 ± 37.5 mU/L | T50_max_falling [6]: 143 ± 44.1 min | T50_max_rising [6]: 12.0 ± 9.5 min | Tmax [6]: 50.1 ± 19.7 min | ΔCmax [6]: 47.2 ± 34.8 mU/L | T50_max_falling [7]: 136 ± 39.5 min | T50_max_rising [7]: 11.2 ± 5.0 min | Tmax [7]: 47.1 ± 18.3 min | ΔCmax [7]: 51.5 ± 40.8 mU/L | ΔCmax (SC infusion, Days 1–3 combined, across meals, baseline corrected, n = 141–156): 48.7 ± 37.6 mU/L | T50_max_falling [8]: 138 ± 45.1 min | T50_max_rising [8]: 12.2 ± 7.7 min | Tmax [8]: 47.7 ± 22.8 min | Intra-subject variability of Tmax (SC): 36.7 %CV | intra-subject Tmax variability measured by %CV (SC, across meals and days): 37% | Tmax shortening, ID vs SC (across days): ~ 19 min | time reduction of T50%maxfalling, ID vs SC (across days): ~31 min | time reduction of T50%maxrising, ID vs SC (across days): ~ 6 min | less intra-subject variability (%CV), ID compared to SC (across meals and days): ~ 7%
